Test results taken from article doi:10.1101/2021.05.26.445185.

Assays:
Experiment in all cases: single-molecule FRET
Settings in all cases: 5' m7GpppAm cap named for viral RNA; 3' poly(A) of unstated length
[1] = tested on: Cy5-eIF4E (Homo sapiens)
[2] = tested on: Cy5-eIF4E(S209D) (Homo sapiens)
[3] = biological target: Cy5-eIF4E(S209D);eIF4G(557-1137);eIF4A (Homo sapiens;Homo sapiens;Homo sapiens) (UniProt Q04637)
[4] = biological target: Cy5-eIF4E;eIF4G(557-1137);eIF4A (Homo sapiens;Homo sapiens;Homo sapiens) (UniProt Q04637)

capped polyadenylated SARS-CoV-2 5' UTR
Kd [1]: 74 nM | Kd [2]: 62 nM | Kd [3]: 78 nM | Kd [4]: 127 nM
